This experiment concerns the target wild-type full-length human FGFR1c, P11362. Put plainly: proximity ligation assay (PLA) on L6 cells. To be noted: chain shown with the change; L6-FGFR1cWT cells cotreated with FGF23ΔHBS and soluble αKlotho; n = 6 microscope fields, mean ± SD; parent: est. 2.3; read off a plot.

Sequence of wild-type full-length human FGFR1c, P11362 (P11362 22-822): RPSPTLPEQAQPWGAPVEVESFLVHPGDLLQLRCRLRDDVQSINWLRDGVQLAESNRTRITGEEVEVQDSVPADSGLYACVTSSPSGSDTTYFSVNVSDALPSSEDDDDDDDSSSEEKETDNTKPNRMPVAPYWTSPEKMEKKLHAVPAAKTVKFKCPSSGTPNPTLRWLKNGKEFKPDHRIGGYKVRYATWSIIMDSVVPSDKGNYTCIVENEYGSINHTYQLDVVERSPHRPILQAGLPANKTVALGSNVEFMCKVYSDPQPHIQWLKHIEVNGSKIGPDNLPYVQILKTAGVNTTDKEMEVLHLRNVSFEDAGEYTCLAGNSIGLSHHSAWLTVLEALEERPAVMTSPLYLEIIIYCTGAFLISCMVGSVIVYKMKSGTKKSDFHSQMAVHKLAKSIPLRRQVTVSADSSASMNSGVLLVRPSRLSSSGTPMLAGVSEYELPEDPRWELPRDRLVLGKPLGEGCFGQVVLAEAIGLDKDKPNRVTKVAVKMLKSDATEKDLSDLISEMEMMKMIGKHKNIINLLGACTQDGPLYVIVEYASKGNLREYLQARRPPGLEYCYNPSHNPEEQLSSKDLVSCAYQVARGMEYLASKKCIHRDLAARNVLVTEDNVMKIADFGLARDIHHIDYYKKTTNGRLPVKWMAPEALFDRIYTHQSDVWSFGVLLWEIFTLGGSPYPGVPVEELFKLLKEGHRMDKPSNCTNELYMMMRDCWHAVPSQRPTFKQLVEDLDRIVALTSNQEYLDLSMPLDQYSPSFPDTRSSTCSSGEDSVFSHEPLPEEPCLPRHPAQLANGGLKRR

B1: full-length mature human FGF23 (residues Tyr25 to Ile251), Q9GZV9 R48A; R140A (protein)
chain: MLGARLRLWVCALCSVCSMSVLRAYPNASPLLGSSWGGLIHLYTATAANSYHLQIHKNGHVDGAPHQTIYSALMIRSEDAGFVVITGVMSRRYLCMDFRGNIFGSHYFDPENCRFQHQTLENGYDVYHSPQYHFLVSLGAAKRAFLPGMNPPPYSQFLSRRNEIPLIHFNTPIPRRHTRSAEDDSERDPLNVLKPRARMTPAPASCSQELPSAEDNSPMASDPLGVVRGGRVNTHAGGTGPEGCRPFAKFI
Consider B1, for which the response (positive point/cell number) is 1.2.
